Measured values taken from the DeepSol protein solubility set.

Assay: soluble on expression in E. coli; label from the status in PepcDB or PDB records
For “MIKVEIKPSQAQFTTRSGVSRQGKPYSLNEQLCYIDLGNEYPVLVKVTLDEGQPAYAPGLYTVHLSSFKVGQFGSLMIDRLRLVPAK”, the “soluble on expression in E. coli” value was “soluble”. For “MLTIGGKSFQSRLLLGTGKYPSFDIQKEAVAVSESDILTFAVRRMNIFEASQPNFLEQLDLSKYTLLPNTAGASTAEEAVRIARLAKASGLCDMIKVEVIGCSRSLLPDPVETLKASEQLLEEGFIVLPYTSDDVVLARKLEELGVHAIMPGASPIGSGQGILNPLNLSFIIEQAKVPVIVDAGIGSPKDAAYAMELGADGVLLNTAVSGADDPVKMARAMKLAVEAGRLSYEAGRIPLKQYGTASSPGEGLP”, the “soluble on expression in E. coli” value was “soluble”. With “MLCTVTEKLYYDDMYMKEFQAEVVSVDSNGIVLDRTAFYPTGGGQPNDTGIIVNDDKTYRVVDVQKHGDDVVHILESVDGLKAGDRIYGKIDWERRYAHMRYHTAIHILDGIVSAKHNSEALLTGGQIYEDRSRIDMNIENFTKEFVDQIIQEANEFISEGHRVYAENISREEAMKRPNLARTEPGRKLIESLPVVRIIVIEGLDEQSDGGTHVANTREVGKIVLRKIENKGRKNKRIEFELSPA” the “soluble on expression in E. coli” value was “not soluble”. For “MGSDKIHHHHHHMRSLTNAEIAHNRLLNSGLLQSKFSSAEDATRALFGIQSQYQQFGEISLFNRVPNLTKENLQMAYDDKGIIKIWGQRMTIHMYTPDDWFYVHDVYANKNNWLRKHADSLGRDLDEILVQMEELLLREDKVSKESFAALLGNEAKELMTWGGVFIQGSLDGKLFCVPESPKTKFYSHRNQIDSEREDAWITNKRSKTGLETMIDRYFSAFGPATIQDFKHWSGLRNSDYIETLEKLLENYICYIGEDGKNYYSKAKTQENVEMGSPLLLGKFDPLFVSYAKKNWLASEKETSLIWRTAGQIEAVLIINAQFFGTWRYKISGDKIVFQFYLSKKLTKKGQKLVEKEAIKLAEFLLKNYQGSIFEQI”, the “soluble on expression in E. coli” value was “not soluble”. In the case of “MEGEAELWNFLERHLRSIYEGDWATYEATTHEELSLYEWFVTPHRLDGLPFHRFMVEKNWATRGRAYRLDLLEKRLQRYGDVAIFSYTLLLTVEEEAGLRHRAVNESRVAVRFPEGWKVVHVHKSPAG”, the “soluble on expression in E. coli” value is reported as “soluble”. For “MQFSTTPTLEGQSIVEYCGVVTGEAILGANIFRDFFAGIRDIVGGRSGAYEKELRKAREIAFQELGEQAKALGADAVVGIDIDYETVGKDGSMLMVSVSGTAVKTRR”, the “soluble on expression in E. coli” value was “not soluble”. In the case of “MLRLIPNKGLKKTINTLTVAEKARINHQDIEELLLRYQRSCPEDAARNITEVTNPNQEKHEGLRVFVIQTWMALMVANSYGLETYQTLKTFMDRQGYKTQPDSTYMATEQKD”, the “soluble on expression in E. coli” value is reported as “not soluble”. For “MAASTFFIPSVNVIGADSLTDAMNMMADYGFTRTLIVTDNMLTKLGMAGDVQKALEERNIFSVIYDGTQPNPTTENVAAGLKLLKENNCDSVISLGGGSPHDCAKGIALVAANGGDIRDYEGVDRSAKPQLPMIAINTTAGTASEMTRFCIITDEARHIKMAIVDKHVTPLLSVNDSSLMIGMPKSLTAATGMDALTHAIEAYVSIAATPITDACALKAVTMIAENLPLAVEDGSNAKAREAMAYAQFLAGMAFNNASLGYVHAMAHQLGGFYNLPHGVCNAVLLPHVQVFNSKVAAARLRDCAAAMGVNVTGKNDAEGAEACINAIRELAKKVDIPAGLRDLNVKEEDFAVLATNALKDACGFTNPIQATHEEIVAIYAAR”, the “soluble on expression in E. coli” value was “not soluble”. With “MHHHHHHSSQEVGEHREITAEETAELLKNSHSVIITPGYGMAVAQAQYPVAEITEKLRARGINVRFGIHPVAGRLPGHMNVLLAEAKVPYDIVLEMDEINDDFADTDTVLVIGANDTVNPAAQDDPKSPIAGMPVLEVWKAQNVIVFKRSMNTGYAGVQNPLFFKENTHMLFGDAKASVDAILKAL” the “soluble on expression in E. coli” value was “soluble”. In the case of “MSLARARMKERGVEVSDIAELVFFLQKKYHPDLTIDECTLNVNRVLAKREVQNAILTGIELDVLAEQKKLSEPLQTMLEIDESLYGVDEVLAFSIVNIYGSIGFTNYGYIDKEKPGILKRLNDKSTGECHTFLDDIVGAISAAASSRLAHREGHHHHHH”, the “soluble on expression in E. coli” value is reported as “not soluble”. For “KMLDEKFYSKLLGEELDLIICLPPDFSPLYKYPLFIVQDGKDYFQFGKLARHSEELAVNEQIQKAIFIGIPYKTVMDRREKYHPDGEQNEAYIRFLAFELVPYLEERFPSFQMPTSRFL”, the “soluble on expression in E. coli” value was “not soluble”.
